Each substance was assayed against membrane IgE C2C4 expressed on Ramos cells (in the presence of Ig-alpha and Ig-beta) (human) (UniProt P01854) (assay: flow cytometry, MFI on C2C4-expressing Ramos cells divided by MFI on non-induced cells).

Row | MFI ratio | Substance
1 | > 5 | positive control mAB anti-IgE BSW17 (antibody)
2 | > 5 | positive control mAB anti-IgE Le27 (antibody)

Row | Substance | MFI ratio
3 | Negative controls (right sample block, starting with no primary AB) | 1

Source: patent publication US20180186896A1
